Results as given in IntAct's records for PubMed 16203728.

B1: Erbin (Homo sapiens), Q96RT1-2 (parent)
chain: MTTKRSLFVRLVPCRCLRGEEETVTTLDYSHCSLEQVPKEIFTFEKTLEELYLDANQIEELPKQLFNCQSLHKLSLPDNDLTTLPASIANLINLRELDVSKNGIQEFPENIKNCKVLTIVEASVNPISKLPDGFSQLLNLTQLYLNDAFLEFLPANFGRLTKLQILELRENQLKMLPKTMNRLTQLERLDLGSNEFTEVPEVLEQLSGLKEFWMDANRLTFIPGFIGSLKQLTYLDVSKNNIEMVEEGISTCENLQDLLLSSNSLQQLPETIGSLKNITTLKIDENQLMYLPDSIGGLISVEELDCSFNEVEALPSSIGQLTNLRTFAADHNYLQQLPPEIGSWKNITVLFLHSNKLETLPEEMGDMQKLKVINLSDNRLKNLPFSFTKLQQLTAMWLSDNQSKPLIPLQKETDSETQKMVLTNYMFPQQPRTEDVMFISDNESFNPSLWEEQRKQRAQVAFECDEDKDEREAPPREGNLKRYPTPYPDELKNMVKTVQTIVHRLKDEETNEDSGRDLKPHEDQQDINKDVGVKTSESTTTVKSKVDEREKYMIGNSVQKISEPEAEISPGSLPVTANMKASENLKHIVNHDDVFEESEELSSDEEMKMAEMRPPLIETSINQPKVVALSNNKKDDTKETDSLSDEVTHNSNQNNSNCSSPSRMSDSVSLNTDSSQDTSLCSPVKQTHIDINSKIRQEDENFNSLLQNGDILNSSTEEKFKAHDKKDFNLPEYDLNVEERLVLIEKSVDSTATADDTHKLDHINMNLNKLITNDTFQPEIMERSKTQDIVLGTSFLSINSKEETEHLENGNKYPNLESVNKVNGHSEETSQSPNRTEPHDSDCSVDLGISKSTEDLSPQKSGPVGSVVKSHSITNMEIGGLKIYDILSDNGPQQPSTTVKITSAVDGKNIVRSKSATLLYDQPLQVFTGSSSSSDLISGTKAIFKFDSNHNPEEPNIIRGPTSGPQSAPQIYGPPQYNIQYSSSAAVKDTLWHSKQNPQIDHASFPPQLLPRSESTENQSYAKHSANMNFSNHNNVRANTAYHLHQRLGPARHGEMWAISPNDRLIPAVTRSTIQRQSSVSSTASVNLGDPGSTRRAQIPEGDYLSYREFHSAGRTPPMMPGSQRPLSARTYSIDGPNASRPQSARPSINEIPERTMSVSDFNYSRTSPSKRPNARVGSEHSLLDPPGKSKVPRDWREQVLRHIEAKKLEKMPLSNGQMGQPLRPQANYSQIHHPPQASVARHPSREQLIDYLMLKVAHQPPYTQPHCSPRQGHELAKQEIRVRVEKDPELGFSISGGVGGRGNPFRPDDDGIFVTRVQPEGPASKLLQPGDKIIQANGYSFINIEHGQAVSLLKTFQNTVELIIVREVSS

Variants of: B1
Conditions: with nod2_human NOD2, Q9HC29
Chain of nod2_human NOD2, Q9HC29 (Q9HC29 whole entry): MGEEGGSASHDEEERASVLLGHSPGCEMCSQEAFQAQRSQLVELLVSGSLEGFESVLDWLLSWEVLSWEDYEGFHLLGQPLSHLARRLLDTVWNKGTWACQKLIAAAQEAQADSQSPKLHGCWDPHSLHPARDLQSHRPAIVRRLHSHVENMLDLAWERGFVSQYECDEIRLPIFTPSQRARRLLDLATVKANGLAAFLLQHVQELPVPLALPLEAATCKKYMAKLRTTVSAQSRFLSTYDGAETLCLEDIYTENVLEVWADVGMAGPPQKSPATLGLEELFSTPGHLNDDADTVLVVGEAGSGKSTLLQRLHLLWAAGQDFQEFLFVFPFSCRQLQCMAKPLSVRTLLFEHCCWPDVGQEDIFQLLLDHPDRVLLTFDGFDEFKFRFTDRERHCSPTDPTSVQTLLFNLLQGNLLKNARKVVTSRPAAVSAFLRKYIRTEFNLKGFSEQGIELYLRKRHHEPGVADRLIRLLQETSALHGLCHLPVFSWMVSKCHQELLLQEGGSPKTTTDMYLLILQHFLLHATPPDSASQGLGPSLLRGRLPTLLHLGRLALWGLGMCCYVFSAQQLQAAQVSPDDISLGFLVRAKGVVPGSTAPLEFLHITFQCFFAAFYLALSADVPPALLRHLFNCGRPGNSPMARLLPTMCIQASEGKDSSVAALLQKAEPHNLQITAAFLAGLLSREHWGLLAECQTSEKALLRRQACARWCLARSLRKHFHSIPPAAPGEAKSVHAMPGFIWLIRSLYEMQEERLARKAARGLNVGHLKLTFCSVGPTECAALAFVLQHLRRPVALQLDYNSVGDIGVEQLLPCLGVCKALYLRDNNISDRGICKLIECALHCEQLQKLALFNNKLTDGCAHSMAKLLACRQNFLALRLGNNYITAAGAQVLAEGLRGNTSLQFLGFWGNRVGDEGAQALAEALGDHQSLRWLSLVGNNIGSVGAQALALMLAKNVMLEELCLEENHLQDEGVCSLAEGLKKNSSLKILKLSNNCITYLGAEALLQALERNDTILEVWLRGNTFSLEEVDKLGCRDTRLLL

Variant | effect of a mutation on the interaction
P315L | decreasing interaction
